From article PMC2199173

Target: purified soluble human FasL (AL-1) (human)
Experiment: SEC

stoichiometry N: 3
Substance: purified soluble human FasL (AL-1) (ligand)
